Values of other authors as cited in article PMC5694535.
pKd: −log10 of the molar value. Like-named read-outs stand apart in the source and are kept apart here. One block for each substance: values may come before it.

What was measured:
Clathrin heavy chain TD [1] = molecular target: Clathrin heavy chain TD (UniProt P11442)
Clathrin heavy chain TD [2] = molecular target: Clathrin heavy chain TD (UniProt P11442); remark: listed apart in the source
AP2 beta2 appendage [3] = molecular target: AP2 beta2 appendage (UniProt P63010)
AP2 beta2 appendage [4] = molecular target: AP2 beta2 appendage (UniProt P63010); assay: ITC

UniProt P63010, sequence (P63010 701-937): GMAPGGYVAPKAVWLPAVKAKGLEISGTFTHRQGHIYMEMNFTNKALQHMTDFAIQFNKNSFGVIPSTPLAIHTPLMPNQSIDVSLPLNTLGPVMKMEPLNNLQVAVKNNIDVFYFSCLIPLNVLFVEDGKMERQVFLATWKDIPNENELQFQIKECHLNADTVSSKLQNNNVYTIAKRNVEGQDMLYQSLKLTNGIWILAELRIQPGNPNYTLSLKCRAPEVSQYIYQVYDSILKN
UniProt P11442, sequence (P11442 1-363): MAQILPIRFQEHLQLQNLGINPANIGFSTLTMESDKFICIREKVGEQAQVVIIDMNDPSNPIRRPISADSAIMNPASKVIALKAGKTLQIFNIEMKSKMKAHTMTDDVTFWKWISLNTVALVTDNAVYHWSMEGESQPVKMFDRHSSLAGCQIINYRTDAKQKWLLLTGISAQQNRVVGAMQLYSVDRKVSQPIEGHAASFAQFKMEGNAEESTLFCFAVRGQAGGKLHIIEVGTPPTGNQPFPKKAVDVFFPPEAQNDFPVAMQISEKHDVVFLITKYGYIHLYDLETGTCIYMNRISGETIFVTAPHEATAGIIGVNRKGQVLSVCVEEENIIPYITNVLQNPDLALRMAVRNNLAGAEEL

pKd (Clathrin heavy chain TD [1]): 3.70
Substance: AP180 DLL/DLF motifs (from UniProt Q05140)

pKd (Clathrin heavy chain TD [2]): 3.07
Substance: AP180 peptide (from UniProt Q05140)

pKd (AP2 beta2 appendage [3]): 5.62
Substance: ARH peptide (from UniProt Q5SW96)

pKd (AP2 beta2 appendage [4]): 5.59
Substance: beta-arrestin
